According to the supplement of paper PMC10567573:

B1: C1orf55 (parent)
chain: FTSPDYQQQCHEMAERLEDSVLKG
B2: HSP90AB1 (parent)
chain: QVANSAFVERVRKRGFEVVYMTEP

Variants of: B1
Experiment: protein stability index of a GFP-peptide fusion (GPS, HEK-293T) (PSI 1-6); higher = more stable
Conditions: c terminus: a fixed tail appended
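Also: lentivirally expressed fusions sorted by FACS into six bins by GFP to DsRed ratio, PSI derived from sequencing read proportions per bin multiplied by bin number.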

Protein stability index of substitutions, site by site:
Q7: K 2.07; Y 3.06; A 1.12; P 2.27; F 3.33; E 3.92; I 1.81; T 2.02; D 4.18; L 2.13; G 2.05; M 2.01; H 2.14; C 1.68; S 2.24; N 3.16; R 1.85; V 2.02
H11: D 2.83; F 2.26; A 2.83; L 1.87; R 2.45; K 2.1; Y 1.87; V 2.52; S 2.13; C 1.8; T 2.1; M 2.33; I 2.61; N 2.13; P 2.66; E 2.95; G 2.35; Q 2.87
P4: W 2.61; T 2.06; A 2.37; G 2.06; C 2.87; M 2.23; R 2.8; E 4.3; F 2.6; Y 1.98; D 4.06; S 2.26; V 2.09; L 2.18; K 2.41; Q 2.62; I 2.37; H 2.63; N 2.52
L17: K 1.97; H 2.52; I 2.12; A 2.86; C 2.25; D 3.18; F 2.01; E 2.97; G 2.54
T2: P 3.77; K 3.92; G 3.24; F 3.69; D 4.63; W 3.04; V 2.45; C 1.56; S 3.39; A 2.62; E 4.24; I 2.14; Q 2.87; L 3.48; H 2.25; Y 2.88; R 4.16; N 4.04; M 3.79
Y6: A 4.56; V 4.37; E 5.43; D 4.95; M 3.94; W 3.06; S 4.63; K 4.44; L 4.3; C 4.51; G 4.76; F 1.84; R 4.24; H 4.48; T 4.41; P 4.14; N 4.27; Q 4.78; I 3.94
E15: V 2.42; Q 1.67; F 1.78; W 1.11; L 1.57; N 1.36; I 1.86; P 2.33; K 1.59; R 2.04; D 1.82; S 2.04; A 2.8; C 1.96; H 2.34; M 1.8; T 2.62; Y 1.22; G 2.25
S3: N 2.75; L 3.23; I 3.73; K 3.47; M 2.96; H 3.34; P 3.61; C 2.83; T 2.52; G 1.76; E 4.12; Q 3.1; R 2.54; Y 3.13; F 3.06; W 2.24; V 3.92; A 2.89; D 3.25
Q9: V 2.21; M 2.08; G 1.92; P 2.59; L 1.7; K 1.92; F 2.12; H 1.85; W 2.98; S 1.94; Y 2.09; A 1.95; E 3.26; D 3.87; T 1.38; R 1.28; I 1.29; N 1.52; C 1.84
F1: R 3.98; A 4.88; V 4.07; M 4.55; H 4.59; W 3.75; Y 1.94; G 4.87; E 4.78; N 4.84; Q 4.35; K 4.64; T 4.88; C 4.43; D 4.84; I 4.68; S 4.31; L 5; P 5.18
A14: G 2.48; T 2.07; H 2.39; M 2.27; C 2.06; W 2.1; V 2; E 2.63; K 2.52; P 2.48; L 2.26; S 2; Y 1.92; Q 2.45; F 2.21; I 2.45; N 2.75; D 2.86; R 2.27
R16: S 2.21; L 1.77; F 2.29; C 2.31; I 2.94; G 2.49; E 2.45; P 2.56; Y 2.04; A 2.08; V 2.45; M 2.44; W 1.9; N 2.52; Q 2.4; H 2.33; K 1.93; D 2.85; T 2.38
M13: Y 1.93; E 2.62; R 2.09; A 2.03; H 2.27; T 2.1; G 2.56; Q 2.24; C 1.97; S 2.53; N 2.66; P 2.83; I 1.97; D 2.55; F 1.85; V 1.91; K 2.79; L 2.25; W 2.02
E12: C 1.93; H 2.36; T 1.47; L 2.7; F 3.35; G 2.13; N 1.7; Y 2.35; K 1.32; W 1.85; M 1.89; I 2.98; Q 2.23; V 1.88; D 2.56; S 1.73; R 1.87; A 2.79; P 1.5
D5: P 2.94; W 2.62; E 2.41; G 1.8; F 2.09; S 1.81; Y 2.28; I 2.15; H 2.03; V 1.86; K 2.57; L 2.33; N 2.47; T 2.17; M 2.12; A 2.15; Q 2.29; R 2.03; C 3.59
Q8: A 1.96; K 2; V 2.47; W 2.04; Y 1.99; C 1.64; M 1.59; P 4.29; L 1.68; N 2.62; F 2.44; S 2.18; D 3.9; H 2.35; I 1.63; E 3.44; T 2.6; R 1.72; G 2.81
C10: W 2.05; R 3.69; E 4.53; L 2.55; M 2.41; V 2.29; D 4.68; A 3.17; K 3.46; S 2.87; T 2.26; I 2.59; Y 3.3; Q 3.47; P 3.87; F 2.14; N 3.37; H 2.74; G 3.29

Variants of: B2
Experiment: as above
Conditions: c terminus: a fixed tail appended

Protein stability index of substitutions, site by site:
E23: Y 1.66; T 1.89; R 2.47; V 2.38; S 2.54; Q 1.9; W 2.14
P24: C 2.2; W 2.09; M 2.14; L 1.21; I 2.03; R 2; Y 1.89; N 2.32; H 2.1; G 2.42; F 1.63; E 3.13; Q 2.52; T 2.48; D 3.18; K 2.44
